From paper PMC11932488, “Lytic coelomocyte death is tuned by cleavage but not phosphorylation of MLKL in echinoderms” (PLOS Pathogens, 2025) come the findings set out here.

This data set deals with the molecule itself. The data set is described as follows: cross-linking; coelomocytes infected with 10^8 CFU/ml AJ01 for 3 h; Triton X-100 insoluble pellet cross-linked 30 min at room temperature (DSS by the legend); Western blot. (Immunoblotting shows a protein as a band on a membrane.)

B1: AjCASP-1 (cysteine-aspartic specific protease-1 of Apostichopus japonicus), endogenous (enzyme, UniProt A0A6G5QC75 1-299, looked up)
chain: MAVADIPSSDYVFRERKRPIRGDEPSAIHFNLRYDMQQQTRGFAHIFNNDIFQKMDDRKGTRKDRDNLKETFTNLGFKVRVHDDCTASEIRDILLEASKVDHSDFDCFLCVFLTHGDDGIIYGSDGEPESFKGNGSVHSTNRTWLRLNDDVFDIFRGNNCSTLIGKPKIFIIQACRGGTAEFSAMIGSAATDYEEPLETSVGVKVTIPTEADFLISYSSSEGYYSFRELYKGTWFIQDLTRVLNEFGRNGDFIRMLTVVNKLVSERAIQGSGKPELEGKKQMPCFLSKLTRQLHLTAQT
notes: AjCASP-1, caspase-1 of Apostichopus japonicus, MH807451; 34 kDa monomer, self-cleaved to p20 (25 kDa) after AJ01 infection; In infected cells both the uncleaved and the self-cleaved form are present; also called AjCaspase-1; source: endogenous, A. japonicus coelomocyte lysate (uninfected or AJ01-infected)
With B1, the stoichiometry N (commonly the number of molecules, sites or subunits per partner or assembly) turned out to be 2.
